Patent US20200157212A1 (Pfizer, published 2020)

T1: Human ROBO2 Ig1-Ig2-His (human, UniProt Q9HCK4 31-220)
T1 construct: the His tag is named only in the SPR paragraphs; the Octet and ELISA paragraphs print 'ROBO2 Ig1-Ig2' without a tag; also called ROBO2 Ig1-2; Human ROBO2 Ig 1,2
T1 sequence: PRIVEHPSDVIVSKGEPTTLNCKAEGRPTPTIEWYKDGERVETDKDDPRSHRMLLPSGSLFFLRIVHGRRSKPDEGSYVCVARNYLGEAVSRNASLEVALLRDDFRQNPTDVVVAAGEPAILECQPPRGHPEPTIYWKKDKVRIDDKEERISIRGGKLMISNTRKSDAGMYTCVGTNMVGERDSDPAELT

T2: Terbium (Tb) labeled-SNAP tagged ROBO2 expressed on HEK293 cells (Homo sapiens (Human), UniProt Q9HCK4 22-1378, terbium label on the SNAP tag)
T2 construct: also called Tb-labeled ROBO2 cells; ROBO2 expressing cells; not shown: SNAP tag
T2 sequence: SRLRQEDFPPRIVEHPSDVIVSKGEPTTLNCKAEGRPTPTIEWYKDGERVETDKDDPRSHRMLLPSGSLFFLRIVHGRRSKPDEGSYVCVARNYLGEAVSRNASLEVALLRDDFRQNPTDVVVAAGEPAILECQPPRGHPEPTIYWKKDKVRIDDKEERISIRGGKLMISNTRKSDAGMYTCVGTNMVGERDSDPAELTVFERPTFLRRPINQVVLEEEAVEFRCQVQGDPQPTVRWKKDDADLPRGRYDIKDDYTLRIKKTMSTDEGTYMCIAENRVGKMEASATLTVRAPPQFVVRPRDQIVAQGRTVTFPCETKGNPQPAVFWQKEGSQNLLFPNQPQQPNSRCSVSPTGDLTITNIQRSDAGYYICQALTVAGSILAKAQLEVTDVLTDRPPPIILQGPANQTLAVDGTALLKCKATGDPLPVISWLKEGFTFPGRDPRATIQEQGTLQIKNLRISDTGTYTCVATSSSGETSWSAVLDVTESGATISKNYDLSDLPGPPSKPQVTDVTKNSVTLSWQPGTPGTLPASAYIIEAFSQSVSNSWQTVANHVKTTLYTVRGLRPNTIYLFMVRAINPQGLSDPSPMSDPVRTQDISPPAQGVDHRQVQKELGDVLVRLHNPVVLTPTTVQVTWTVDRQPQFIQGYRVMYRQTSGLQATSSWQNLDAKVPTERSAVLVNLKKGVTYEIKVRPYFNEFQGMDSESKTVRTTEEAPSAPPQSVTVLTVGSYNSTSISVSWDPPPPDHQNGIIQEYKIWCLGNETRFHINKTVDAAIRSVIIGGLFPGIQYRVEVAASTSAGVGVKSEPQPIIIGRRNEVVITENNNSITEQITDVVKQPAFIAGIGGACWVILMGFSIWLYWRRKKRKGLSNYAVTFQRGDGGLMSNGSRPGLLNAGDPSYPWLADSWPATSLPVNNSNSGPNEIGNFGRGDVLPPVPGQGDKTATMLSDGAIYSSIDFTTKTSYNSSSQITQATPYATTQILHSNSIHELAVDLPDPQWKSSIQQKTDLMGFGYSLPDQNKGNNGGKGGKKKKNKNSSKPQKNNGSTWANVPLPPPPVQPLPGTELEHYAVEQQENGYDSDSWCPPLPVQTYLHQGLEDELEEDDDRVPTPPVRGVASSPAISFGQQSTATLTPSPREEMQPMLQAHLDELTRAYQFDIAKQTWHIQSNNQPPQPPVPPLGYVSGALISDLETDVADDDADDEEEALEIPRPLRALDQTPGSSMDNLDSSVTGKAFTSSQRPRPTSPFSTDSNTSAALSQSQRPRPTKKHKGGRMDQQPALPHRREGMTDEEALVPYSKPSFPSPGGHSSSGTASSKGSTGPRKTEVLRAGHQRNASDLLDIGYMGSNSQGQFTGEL


Legend:
Human ROBO2 Ig1-Ig2-His = biological target: T1, Human ROBO2 Ig1-Ig2-His; assay: SPR, antibody on CM5 chip, ROBO2 Ig1-Ig2-His
Protocol: Based upon several criteria, Abcs25 and Abcs35 were selected for further characterization. Using flow cytometry, improvement in the binding EC₅₀ to human ROBO2 relative to the parental 93H2 was evaluated. Starting at 6.7 nM, 11-point, 3-fold dilution series were made for each antibody and used to stain HEK293 overexpressing human ROBO2 as described above for the ROBO2 fold selectivity (Example 2). […] In addition to measuring improved binding to human ROBO2, it was important to ensure that high affinity binding to both cynomolgus monkey ROBO2 and rat ROBO2 was maintained. Using HEK293 cells overexpressing either cynomolgus monkey ROBO2 or rat ROBO2, the relative dose-dependent binding of 93H2, Abcs25 and Abcs35 was evaluated as described above. High affinity binding to both cynomolgus monkey and rat ROBO2 was maintained in Abcs25 and Abcs35 (Table 4). […] Briefly, Abcs35 was immobilized to 300 resonance units (RU) on a CM5 chip. Association of ROBO2 Ig1-Ig2-His (ROBO2) was measured over 5 minutes and dissociation was followed for a period of 10 minutes.
Affinity was measured by standard SPR methods as described in Example 3. Briefly, antibodies were immobilized to a specific measure of resonance units (RU) on a CM5 chip. Association of ROBO2 Ig1-Ig2-His (ROBO2) and dissociation will be followed for a period of time.

[1] = biological target: T2, Terbium (Tb) labeled-SNAP tagged ROBO2 …; assay: HTRF competition, competitor d2-SLIT2-N, ROBO2 HEK293 cells
Protocol: A ROBO2-SLIT2-N homogenous time resolved fluorescence (HTRF) assay was used to identify antibodies that were capable of blocking SLIT2-N binding to ROBO2. In this assay, terbium (Tb) labeled-SNAP tagged ROBO2 expressing HEK293 cells were incubated with 5 nM d2-labeled SLIT-2N in the presence of 1 nM anti-ROBO2 antibodies for 1 hour. After incubation, fluorescence at 665 nm and 620 nm was measured on an Envision multilabel plate reader. […] Maximal signal was defined as the HTRF ratio of Tb-labeled ROBO2 cells with d2-labeled SLIT2-N in the absence of antibody, the minimum signal was defined as the HTRF ratio of Tb-labeled ROBO2 expressing HEK293 cells only. One nanomolar (nM) parental antibody, 93H2, was unable to block the HTRF assay, therefore this concentration was selected to identify clones with a higher affinity than 93H2 (Table 2, HTRF Ratio column). […] Antibodies derived from chain (Abcs series) or CDR shuffling (CTIR-2 series) were evaluated in 11-point, 5-fold dilution series with a top concentration of 1500 nM (Table 2 HTRF IC₅₀).
Neutralization of SLIT2-N binding to ROBO2 was assessed ROBO2:SLIT2-N homogenous time resolved fluorescence (HTRF) assay as described in Example 2. Briefly the HTRF assay was performed as follows: terbium (Tb) labeled-SNAP tagged ROBO2 expressing HEK293 cells were incubated with d2-labeled SLIT-2N in the presence of anti-ROBO2 antibodies for 1 hour. After incubation, fluorescence at 665 nm and 620 nm was measured on an Envision multi-label plate reader. […] Maximal signal was defined as the HTRF ratio of Tb-labeled ROBO2 cells with d2-labeled SLIT2-N in the absence of antibody, the minimum signal was defined as the HTRF ratio of Tb-labeled ROBO2 expressing HEK293 cells only.

Kd (Human ROBO2 Ig1-Ig2-His) [nM] | IC50 [1] [nM] | Binder
0.128 | 0.0651 | Abcs35-E (antibody, human IgG1, kappa, germlined variant of Abcs35; also called Abcs35-eE) heavy: QVQLVQSGAEVKKPGASVKVSCKASGYTFTGYYMHWVRQAPGQGLEWMGWINPKNGDTEFPQKFQGRVTMTRDTSITTAYMDLSRLRSDDTAVYYCARESGDDAFDIWGQGTMVTVSSASTKGPSVFPLAPSSKSTSGGTAALGCLVKDYFPEPVTVSWNSGALTSGVHTFPAVLQSSGLYSLSSVVTVPSSSLGTQTYICNVNHKPSNTKVDKKVEPKSCDKTHTCPPCPAPEAAGAPSVFLFPPKPKDTLMISRTPEVTCVVVDVSHEDPEVKFNWYVDGVEVHNAKTKPREEQYNSTYRVVSVLTVLHQDWLNGKEYKCKVSNKALPAPIEKTISKAKGQPREPQVYTLPPSREEMTKNQVSLTCLVKGFYPSDIAVEWESNGQPENNYKTTPPVLDSDGSFFLYSKLTVDKSRWQQGNVFSCSVMHEALHNHYTQKSLSLSPGK light: DIVMTQSPSSLSASVGDRVTITCRASQSISSYLNWYQQKPGKAPKLLIYAASSLQSGVPSRFSGSGSGTDFTLTISSLQPEDFATYYCQQSVGLFFGGGTKVEIKRTVAAPSVFIFPPSDEQLKSGTASVVCLLNNFYPREAKVQWKVDNALQSGNSQESVTEQDSKDSTYSLSSTLTLSKADYEKHKVYACEVTHQGLSSPVTKSFNRGEC
0.125 | 0.0639 | Abcs35-D (antibody, human IgG1, kappa, germlined variant of Abcs35) heavy: EVQLVQSGAEVKKPGASVKVSCKASGYTFTGYYMHWVRQAPGQGLEWMGWINPKNGDTEFPQKFQGRVTMTRDTSISTAYMELSRLRSDDTAVYYCARESGDDAFDIWGQGTMVTVSSASTKGPSVFPLAPSSKSTSGGTAALGCLVKDYFPEPVTVSWNSGALTSGVHTFPAVLQSSGLYSLSSVVTVPSSSLGTQTYICNVNHKPSNTKVDKKVEPKSCDKTHTCPPCPAPEAAGAPSVFLFPPKPKDTLMISRTPEVTCVVVDVSHEDPEVKFNWYVDGVEVHNAKTKPREEQYNSTYRVVSVLTVLHQDWLNGKEYKCKVSNKALPAPIEKTISKAKGQPREPQVYTLPPSREEMTKNQVSLTCLVKGFYPSDIAVEWESNGQPENNYKTTPPVLDSDGSFFLYSKLTVDKSRWQQGNVFSCSVMHEALHNHYTQKSLSLSPGK light: DIVMTQSPSSLSASVGDRVTITCRASQSISSYLNWYQQKPGKAPKLLIYAASSLQSGVPSRFSGSGSGTDFTLTISSLQPEDFATYYCQQSVGLFFGGGTKVEIKRTVAAPSVFIFPPSDEQLKSGTASVVCLLNNFYPREAKVQWKVDNALQSGNSQESVTEQDSKDSTYSLSSTLTLSKADYEKHKVYACEVTHQGLSSPVTKSFNRGEC

Continued, binder first:

Binder | Kd (Human ROBO2 Ig1-Ig2-His) [nM] | IC50 [1] [nM]
Abcs35-A (antibody, human IgG1, kappa, germlined variant of Abcs35; also called Abcs-A) heavy: EVQLVQSGAEVKKPGASVKVSCKASGYTFTGYYMHWVRQAPGQGLEWMGWINPKNGDTEFPQKFQGRVTMTRDTSITTAYMDLSRLRSDDTAVYYCARESGDDAFDIWGQGTMVTVSSASTKGPSVFPLAPSSKSTSGGTAALGCLVKDYFPEPVTVSWNSGALTSGVHTFPAVLQSSGLYSLSSVVTVPSSSLGTQTYICNVNHKPSNTKVDKKVEPKSCDKTHTCPPCPAPEAAGAPSVFLFPPKPKDTLMISRTPEVTCVVVDVSHEDPEVKFNWYVDGVEVHNAKTKPREEQYNSTYRVVSVLTVLHQDWLNGKEYKCKVSNKALPAPIEKTISKAKGQPREPQVYTLPPSREEMTKNQVSLTCLVKGFYPSDIAVEWESNGQPENNYKTTPPVLDSDGSFFLYSKLTVDKSRWQQGNVFSCSVMHEALHNHYTQKSLSLSPGK light: not shown | 0.099 | 0.0728
Abcs35-C (antibody, human IgG1, kappa, germlined variant of Abcs35) heavy: EVQLVQSGAEVKKPGASVKVSCKASGYTFTGYYMHWVRQAPGQGLEWMGWINPKNGDTEFPQKFQGRVTMTRDTSITTAYMELSRLRSDDTAVYYCARESGDDAFDIWGQGTMVTVSSASTKGPSVFPLAPSSKSTSGGTAALGCLVKDYFPEPVTVSWNSGALTSGVHTFPAVLQSSGLYSLSSVVTVPSSSLGTQTYICNVNHKPSNTKVDKKVEPKSCDKTHTCPPCPAPEAAGAPSVFLFPPKPKDTLMISRTPEVTCVVVDVSHEDPEVKFNWYVDGVEVHNAKTKPREEQYNSTYRVVSVLTVLHQDWLNGKEYKCKVSNKALPAPIEKTISKAKGQPREPQVYTLPPSREEMTKNQVSLTCLVKGFYPSDIAVEWESNGQPENNYKTTPPVLDSDGSFFLYSKLTVDKSRWQQGNVFSCSVMHEALHNHYTQKSLSLSPGK light: DIVMTQSPSSLSASVGDRVTITCRASQSISSYLNWYQQKPGKAPKLLIYAASSLQSGVPSRFSGSGSGTDFTLTISSLQPEDFATYYCQQSVGLFFGGGTKVEIKRTVAAPSVFIFPPSDEQLKSGTASVVCLLNNFYPREAKVQWKVDNALQSGNSQESVTEQDSKDSTYSLSSTLTLSKADYEKHKVYACEVTHQGLSSPVTKSFNRGEC | 0.0821 | 0.074
Abcs35-B (antibody, human IgG1, kappa, germlined variant of Abcs35) heavy: EVQLVQSGAEVKKPGASVKVSCKASGYTFTGYYMHWVRQAPGQGLEWMGWINPKNGDTEFPQKFQGRVTMTRDTSISTAYMDLSRLRSDDTAVYYCARESGDDAFDIWGQGTMVTVSSASTKGPSVFPLAPSSKSTSGGTAALGCLVKDYFPEPVTVSWNSGALTSGVHTFPAVLQSSGLYSLSSVVTVPSSSLGTQTYICNVNHKPSNTKVDKKVEPKSCDKTHTCPPCPAPEAAGAPSVFLFPPKPKDTLMISRTPEVTCVVVDVSHEDPEVKFNWYVDGVEVHNAKTKPREEQYNSTYRVVSVLTVLHQDWLNGKEYKCKVSNKALPAPIEKTISKAKGQPREPQVYTLPPSREEMTKNQVSLTCLVKGFYPSDIAVEWESNGQPENNYKTTPPVLDSDGSFFLYSKLTVDKSRWQQGNVFSCSVMHEALHNHYTQKSLSLSPGK light: DIVMTQSPSSLSASVGDRVTITCRASQSISSYLNWYQQKPGKAPKLLIYAASSLQSGVPSRFSGSGSGTDFTLTISSLQPEDFATYYCQQSVGLFFGGGTKVEIKRTVAAPSVFIFPPSDEQLKSGTASVVCLLNNFYPREAKVQWKVDNALQSGNSQESVTEQDSKDSTYSLSSTLTLSKADYEKHKVYACEVTHQGLSSPVTKSFNRGEC | 0.123 | 0.0765
